Results taken from the supplement of paper PMC10126150.
± gives the standard deviation of the averaged measurements.

The sequences below were run on ATP (assay: switch fluorescence ratio, 500 uM ATP over buffer (Cy3 cluster intensity, sum of 5 cycles each) (fold (ratio)); higher = stronger signal-on switching upon ATP binding; sequences stand for … in TCGTCGGCAGCGTCAGATGTGTATAAGAGACAGTTTTTTTTTTTTTTTTTTTTTTTTT…TC). Details: aptamer strand: ATP DNA aptamer (quencher-CACCTGGGGGAGTATTGCGGAGGAAGG + anchor), 100 nM annealed; ATP concentration: 500 uM.
Summary of the method: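 After annealing to 100 nM quencher-labelled ATP aptamer, Cy3-labelled switching-strand clusters on a modified Illumina MiSeq flow-cell were imaged in selection buffer. A second image followed after 15 min with 500 uM ATP at 22 °C, and five such buffer/ATP cycles were done, each separated by NaOH stripping and re-annealing. The fluorescence ratio, averaged per switch-domain sequence, is summed target-cycle over summed buffer-cycle Cy3 intensity per cluster, with clusters outside 100-1000 RFU excluded.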
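Further: ATP exposure 15 min at 22 °C before imaging.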

Row | Sequence | switch fluorescence ratio
1 | ACTTTGGGGA | 1.033 ± 0.0065
2 | AACTTGGGGG | 1.021 ± 0.0048
3 | AGCAATTGTG | 1.04 ± 0.029
4 | ACGGGGTAGT | 1.02 ± 0.024
5 | TTTGTGGTCG | 1.02 ± 0.031
6 | AGGCGGGTGC | 1.04 ± 0.095
7 | TAAGGTAAGT | 0.987 ± 0.021
8 | AATATGTGTT | 1.02 ± 0.031
9 | AATCGGGGGA | 1.01 ± 0.048
10 | TATTTAATAG | 1.004 ± 0.0028
11 | CTGGCATTTT | 0.9936 ± 0.0054
12 | GGTATTCGGT | 0.971 ± 0.04
13 | GTTTTATTGA | 0.986 ± 0.015
14 | TTATAACCTG | 1.02 ± 0.037
15 | TTTTTCTCGA | 0.991 ± 0.034
16 | TCTGGGGCGG | 1.04 ± 0.074
17 | CGCGGTCATA | 1.023 ± 0.01
18 | ACAGGACCGT | 1.11 ± 0.038
19 | CGAATGGTAA | 1.05 ± 0.051
20 | AATACTCGGG | 1.07 ± 0.033
21 | GGGGTGTGGC | 0.977 ± 0.046
22 | CCCTGGGGGT | 1.15 ± 0.067
23 | TTGGAATATT | 0.9812 ± 0.0027
24 | AGAGGCCTGT | 1.01 ± 0.0086
25 | CTGAGTGGC | 0.9639 ± 0.0063

Row | Sequence | switch fluorescence ratio
26 | CAGGGGTCGT | 1.03 ± 0.038
27 | TTTACGGATA | 1.349 ± 0.013
28 | CGGTTAGGGG | 0.9829 ± 0.0021
29 | TGGGATAACT | 0.99 ± 0.038
30 | TGATGGATAT | 0.9921 ± 0.0021
31 | AATTGAAGAT | 1.03 ± 0.039
32 | TAAATGATAT | 0.984 ± 0.02
33 | GGGCGTGGTG | 1.03 ± 0.011
34 | AATGAGGGAG | 0.995 ± 0.01
35 | AGAATCCGGG | 0.97 ± 0.041
36 | TGGTTAAACT | 0.98 ± 0.027
37 | GATGGGGATA | 1.02 ± 0.013
38 | TAGAAATCGG | 1.02 ± 0.015
39 | ATCCGGGCGG | 1.02 ± 0.071
40 | TGGGTGATTA | 0.9846 ± 0.005
41 | ACTTGTAATG | 0.989 ± 0.049
42 | TAGTGAGGGG | 0.979 ± 0.031
43 | CTGTTTGTGA | 0.995 ± 0.011
44 | TAAAGGTCGT | 0.97444 ± 0.00071
45 | GCGGGACTGT | 1.04 ± 0.046
46 | GGGGACTTTC | 1.03 ± 0.017
47 | TGAGGAGGGG | 0.989 ± 0.048
48 | ATTGTAACAA | 1.037 ± 0.0089
49 | TTATTAAAGG | 1.02 ± 0.071
50 | CACAATATCT | 1.124 ± 0.0037

Row | Sequence | switch fluorescence ratio
51 | TGGGGTGCTG | 1.05 ± 0.016
52 | GGGGGGAGGG | 1 ± 0.052
53 | AGTAGTATTT | 1.017 ± 0.0014
54 | TATCGTCGGA | 0.9823 ± 0.0035
55 | GGGGTGTCTG | 0.9792 ± 0.0074
56 | AGGGGAAGCT | 1.03 ± 0.081
57 | ACTAAAGAGC | 1.12 ± 0.2
58 | TAGCACGGCA | 1.06 ± 0.029
59 | AAGGAGGCAA | 1.255 ± 0.0085
60 | AGGAATATCA | 0.998 ± 0.041
61 | CGGCCTGGCG | 0.969 ± 0.016
62 | TGATTAAATA | 0.994 ± 0.028
63 | TTTAATTGCG | 0.993 ± 0.012
64 | TTGCGTATGC | 1.08 ± 0.11
65 | CTCTGTGCTC | 1.35 ± 0.083
66 | AAAAGGGAGA | 1.01 ± 0.013
67 | AACGTTGGGC | 1.03 ± 0.059
68 | TAAGTTATGT | 1.01 ± 0.015
69 | AGCATTTTCC | 1.135 ± 0.0063
70 | TCGTGGGGAT | 1 ± 0.021
71 | CTGGGTTAGT | 1.03 ± 0.035
72 | ATTGTTTGCA | 1.02 ± 0.056
73 | TTGGGGTCGT | 0.974 ± 0.03
74 | CGGTGACGGG | 0.959 ± 0.014
75 | CGAGAATGTT | 1.07 ± 0.1

Row | Sequence | switch fluorescence ratio
76 | ATTTTGGGGG | 0.988 ± 0.021
77 | AAATTTAGCA | 0.99 ± 0.052
78 | TGAGGTGCGA | 1.01 ± 0.023
79 | TGATAGATGT | 0.983 ± 0.026
80 | TCTTCGGGAA | 1.09 ± 0.06
81 | AAAACCTTGG | 1.05 ± 0.021
82 | GACTTTGAGC | 1.01 ± 0.016
83 | CTATGCGGAA | 1.06 ± 0.038
84 | TTTAGCTGGT | 0.986 ± 0.033
85 | TTGTTAGAGT | 0.9809 ± 0.0019
86 | CGGTTAGATG | 1 ± 0.047
87 | AAAGGGGTCA | 1 ± 0.034
88 | TTTTTGGGAC | 1.03 ± 0.045
89 | AAGCAAAGGT | 1.02 ± 0.027
90 | ACCTTTTGTA | 1 ± 0.032
91 | TCCTTTTTGT | 1.41 ± 0.54
92 | CCTGTTTTAT | 0.9953 ± 0.0051
93 | TTGATACATA | 1.03 ± 0.017
94 | ATAGGTCTTC | 0.983 ± 0.059
95 | TGATTTTGGT | 1.01 ± 0.025
96 | AGCCGCCCCG | 1.1 ± 0.1
97 | AAGACAGGCC | 1.03 ± 0.014
98 | CTGGTCGGGC | 0.982 ± 0.012
99 | TGAGCAAGGT | 1.203 ± 0.0039
100 | TAAAGGGAAG | 1.01 ± 0.021
